Data published in patent US20140179594A1, “STREPTOCOCCUS BACTERIOPHAGE LYSINS FOR TREATMENT OF GRAM POSITIVE BACTERIA IN COMPANION ANIMALS AND LIVESTOCK” (priority 2011, published 2014).

How the values were obtained:
Type in all cases: cell-based
S. suis strain (7711) = experiment: PlySs1 optimal biochemical conditions, turbidity reduction (OD600); conditions: for pH of maximal lysis: bis-tris-propane (BTP) buffer
Description: FIGS. 11A and 11B depicts ΔPlySs1 pH dependence. (A) Cells of host strain 7711 were suspended in phosphate citrate buffer (40/20 mM) at a range of pH-values from 4.6 to 8.0. ΔPlySs1 was added (110 μg/ml) and OD600 was measured over 60 min (horizontal axis) at 37° C. The vertical axis represents the treated/untreated OD600-ratio at each timepoint. For each pH-value, the curve depicts the running average of 3 independent experiments. Overall, activity was maximal at the upper end of the buffering range. (B) Here, bis-tris-propane (40 mM) was employed as the buffering agent with a pH-range from 7.0 to 9.7; ΔPlySs1 was again added to 110 μg/ml. Each curve depicts the running average of 3 experiments.
FIG. 12 depicts ΔPLySS1 NaCl dependence. S. suis 7711 cells were suspended in phosphate-citrate buffer pH=7.8 (40/20 mM). NaCl was added to the above concentrations, followed by ΔPlySs1 at 110 μg/ml. Optical density at 600 nm was observed over 60 min at 37° C. In this figure, the vertical axis represents the treated/untreated OD600-ratio for each NaCl concentration, averaged over 3 independent experiments.
FIGS. 13A and 13B provides assessment of ΔPlySs1 DTT and EDTA susceptibility. (A) ΔPlySs1 was pre-incubated for 1 hr with 5 mM DTT (a large molar excess) prior to addition to 7711 cells; activity was unchanged. (B) Here, various concentrations of EDTA were included in the buffered suspension of cells prior to addition of ΔPlySs1 (110 μg/ml lysin). For both images, the vertical axis represents the treated/untreated OD600-ratio for each condition, averaged over 3 independent experiments.
(A) A ΔPlySs1 stock solution was held at each of the above temperature for 30 minutes, followed by addition to 7711 cells (270 μg/ml final enzyme concentration, final temperature=37° C., ideal buffering conditions). The curves in this image represent running averages of 3 individual experiments. In each case, complete loss of activity was observed between the 45° C. and 50° C. samples. The 3 hottest samples show a slightly higher OD600 reading than the untreated control due to flocculation of ΔPlySs1 upon denaturation. (B) The above experiment was repeated, but with 6 hours of heat-treatment prior to the assay. […] The 40° C. sample maintained essentially native activity.
The optimal biochemical conditions for PlySs1 were determined against live cells of the encoding S. suis strain (7711). For these experiments, activity was gauged through the degree of turbidity reduction (OD600) of an aqueous bacterial suspension following the addition of lysin. The pH-dependence of the enzyme was first addressed using two buffer sets with adjacent pH ranges, citrate/phosphate: 4.6-8.0; and bis-tris-propane (BTP): 7.0-9.7. An extended spectrum of lysis was observed, from 5.4-9.4 (FIG. 11A). In BTP, lysis was maximal from 8.2-9.0; at commensurate pH-values, however, the magnitude of the OD-drop was slightly more pronounced in citrate/phosphate (FIG. 11B).
At constant enzyme concentrations, bacteriolysis varied little from 0-1000 mM NaCl, with only small numeric increases under the most hypotonic conditions (FIG. 12). […] The thermal stability of PlySs1 was examined by incubating the enzyme at various elevated temperatures prior to use (the OD-drop experiment itself was always conducted at 37° C.). When held at 35° C.-60° C. for 30 min, lysin activity was virtually unaffected until 50° C., at which point it was completely abolished (FIG. 14A). […] The latter corresponds to typical porcine body temperature.

S. equi 700400 = experiment: ΔPlySs1 OD600 lysis, 1 hr
S. gordonii 10558 = experiment: ΔPlySs1 OD600 lysis, 1 hr
S. equi 9528 = experiment: ΔPlySs1 OD600 lysis, 1 hr
S. sanguinis 10556 = experiment: ΔPlySs1 OD600 lysis, 1 hr
[1] = tested on: Group E streptococci K131; experiment: ΔPlySs1 OD600 lysis, 1 hr
S. aureus RN4220 = experiment: ΔPlySs1 OD600 lysis, 1 hr
S. rattus BHT = experiment: ΔPlySs1 OD600 lysis, 1 hr
B. cereus 14579 = experiment: ΔPlySs1 OD600 lysis, 1 hr
S. mutans U159 = experiment: ΔPlySs1 OD600 lysis, 1 hr
S. agalactiae 090R = experiment: ΔPlySs1 OD600 lysis, 1 hr
B. subtilis SL4 = experiment: ΔPlySs1 OD600 lysis, 1 hr

B1: ΔPlySs1: truncated PlySs1 lysin with N-terminal enzymatic and central binding domains, N-terminal 254 amino acids, SEQ ID NO:2 (protein, listed as Streptococcus suis)
chain: MTINLETSIRWMSDRVGKVSYSMDYRNGPNSYDCSSAVYYALMAGGAISAGWAVNTEYMHDWLIRNGYVLVAENKPFNAQRHDVCILGKRGYSSGAGGHVVIFVDNVNVIHCNYARNGISIDNYNQVHRGMYYYLYRPANQPSISNKSLDQLVKETLAGVHGNGDTRKASLGSQYEAVMAVINGKASASEKSDEELAREVLAGKHGAGEDRKRSLGPRYEPVQAKVNELLKAKEKPSETAKNEPQTVQFKEDGDL
S. suis strain (7711); 0-1000 mM NaCl, constant enzyme concentration
  effect of salt concentration on bacteriolysis: varied little
S. suis strain (7711); 6-hr incubation at 40° C.
  thermal stability, activity after heat treatment: unaffected
S. suis strain (7711); 6-hr incubation at 45° C.
  thermal stability, activity after heat treatment: partial decrease in activity
S. suis strain (7711); S. suis 7711
  pH of maximal lysis: 9.0
S. suis strain (7711); S. suis 7711, listed as PlySs1
  pH of maximal lysis: 8.2-9.0
S. suis strain (7711); S. suis 7711, citrate/phosphate 4.6-8.0 and bis-tris-propane 7.0-9.7
  pH spectrum of lysis: 5.4-9.4
S. suis strain (7711); exposure to an excess of DTT (5 mM, 1 hr pre-incubation)
  effect of DTT on activity: did not negatively impact activity
S. suis strain (7711); exposure to an excess of EDTA
  effect of EDTA on activity: did not negatively impact activity
S. suis strain (7711); held at 35° C.-60° C. for 30 min before assay at 37° C.
  temperature at which activity is completely abolished: 50 °C
S. equi 700400; 6.5 μg/ml
  1-hour treated/untreated OD600-ratio: 0.48
S. equi 700400; 13 μg/ml
  1-hour treated/untreated OD600-ratio: 0.25
S. equi 700400; 30 μg/ml
  1-hour treated/untreated OD600-ratio: 0.15
S. equi 700400; 65 μg/ml
  1-hour treated/untreated OD600-ratio: 0.07
S. equi 700400; 130 μg/ml
  1-hour treated/untreated OD600-ratio: 0.09
S. gordonii 10558; 6.5 μg/ml
  1-hour treated/untreated OD600-ratio: 0.76
S. gordonii 10558; 13 μg/ml
  1-hour treated/untreated OD600-ratio: 0.32
S. gordonii 10558; 30 μg/ml
  1-hour treated/untreated OD600-ratio: 0.19
S. gordonii 10558; 65 μg/ml
  1-hour treated/untreated OD600-ratio: 0.09
S. gordonii 10558; 130 μg/ml
  1-hour treated/untreated OD600-ratio: 0.06
S. equi 9528; 6.5 μg/ml
  1-hour treated/untreated OD600-ratio: 0.66
S. equi 9528; 13 μg/ml
  1-hour treated/untreated OD600-ratio: 0.45
S. equi 9528; 30 μg/ml
  1-hour treated/untreated OD600-ratio: 0.25
S. equi 9528; 65 μg/ml
  1-hour treated/untreated OD600-ratio: 0.19
S. equi 9528; 130 μg/ml
  1-hour treated/untreated OD600-ratio: 0.16
S. sanguinis 10556; 6.5 μg/ml
  1-hour treated/untreated OD600-ratio: 0.48
S. sanguinis 10556; 13 μg/ml
  1-hour treated/untreated OD600-ratio: 0.44
S. sanguinis 10556; 30 μg/ml
  1-hour treated/untreated OD600-ratio: 0.28
S. sanguinis 10556; 65 μg/ml
  1-hour treated/untreated OD600-ratio: 0.21
S. sanguinis 10556; 130 μg/ml
  1-hour treated/untreated OD600-ratio: 0.11
[1]; 6.5 μg/ml
  1-hour treated/untreated OD600-ratio: 0.69
[1]; 13 μg/ml
  1-hour treated/untreated OD600-ratio: 0.50
[1]; 30 μg/ml
  1-hour treated/untreated OD600-ratio: 0.33
[1]; 65 μg/ml
  1-hour treated/untreated OD600-ratio: 0.22
[1]; 130 μg/ml
  1-hour treated/untreated OD600-ratio: 0.15
S. aureus RN4220; 6.5 μg/ml
  1-hour treated/untreated OD600-ratio: 0.89
S. aureus RN4220; 13 μg/ml
  1-hour treated/untreated OD600-ratio: 0.78
S. aureus RN4220; 30 μg/ml
  1-hour treated/untreated OD600-ratio: 0.55
S. aureus RN4220; 65 μg/ml
  1-hour treated/untreated OD600-ratio: 0.31
S. aureus RN4220; 130 μg/ml
  1-hour treated/untreated OD600-ratio: 0.10
S. rattus BHT; 6.5 μg/ml
  1-hour treated/untreated OD600-ratio: 0.82
S. rattus BHT; 13 μg/ml
  1-hour treated/untreated OD600-ratio: 0.84
S. rattus BHT; 30 μg/ml
  1-hour treated/untreated OD600-ratio: 0.82
S. rattus BHT; 65 μg/ml
  1-hour treated/untreated OD600-ratio: 0.83
S. rattus BHT; 130 μg/ml
  1-hour treated/untreated OD600-ratio: 0.79
B. cereus 14579; 6.5 μg/ml
  1-hour treated/untreated OD600-ratio: 0.93
B. cereus 14579; 13 μg/ml
  1-hour treated/untreated OD600-ratio: 0.92
B. cereus 14579; 30 μg/ml
  1-hour treated/untreated OD600-ratio: 0.86
B. cereus 14579; 65 μg/ml
  1-hour treated/untreated OD600-ratio: 0.90
B. cereus 14579; 130 μg/ml
  1-hour treated/untreated OD600-ratio: 0.86
S. mutans U159; 6.5 μg/ml
  1-hour treated/untreated OD600-ratio: 0.95
S. mutans U159; 13 μg/ml
  1-hour treated/untreated OD600-ratio: 0.99
S. mutans U159; 30 μg/ml
  1-hour treated/untreated OD600-ratio: 0.94
S. mutans U159; 65 μg/ml
  1-hour treated/untreated OD600-ratio: 0.76
S. mutans U159; 130 μg/ml
  1-hour treated/untreated OD600-ratio: 0.85
S. agalactiae 090R; 6.5 μg/ml
  1-hour treated/untreated OD600-ratio: 0.97
S. agalactiae 090R; 13 μg/ml
  1-hour treated/untreated OD600-ratio: 0.99
S. agalactiae 090R; 30 μg/ml
  1-hour treated/untreated OD600-ratio: 0.97
S. agalactiae 090R; 65 μg/ml
  1-hour treated/untreated OD600-ratio: 0.98
S. agalactiae 090R; 130 μg/ml
  1-hour treated/untreated OD600-ratio: 0.93
B. subtilis SL4; 6.5 μg/ml
  1-hour treated/untreated OD600-ratio: 1.07
B. subtilis SL4; 13 μg/ml
  1-hour treated/untreated OD600-ratio: 1.05
B. subtilis SL4; 30 μg/ml
  1-hour treated/untreated OD600-ratio: 1.04
B. subtilis SL4; 65 μg/ml
  1-hour treated/untreated OD600-ratio: 1.03
B. subtilis SL4; 130 μg/ml
  1-hour treated/untreated OD600-ratio: 0.96
